Experimental findings from patent US20030215852A1 (Pfizer, published 2003) are described below.

The assay addresses T1, Pablo (pro-apoptotic Bcl-XL binding protein) (human, UniProt Q92558 1-559).
T1 sequence: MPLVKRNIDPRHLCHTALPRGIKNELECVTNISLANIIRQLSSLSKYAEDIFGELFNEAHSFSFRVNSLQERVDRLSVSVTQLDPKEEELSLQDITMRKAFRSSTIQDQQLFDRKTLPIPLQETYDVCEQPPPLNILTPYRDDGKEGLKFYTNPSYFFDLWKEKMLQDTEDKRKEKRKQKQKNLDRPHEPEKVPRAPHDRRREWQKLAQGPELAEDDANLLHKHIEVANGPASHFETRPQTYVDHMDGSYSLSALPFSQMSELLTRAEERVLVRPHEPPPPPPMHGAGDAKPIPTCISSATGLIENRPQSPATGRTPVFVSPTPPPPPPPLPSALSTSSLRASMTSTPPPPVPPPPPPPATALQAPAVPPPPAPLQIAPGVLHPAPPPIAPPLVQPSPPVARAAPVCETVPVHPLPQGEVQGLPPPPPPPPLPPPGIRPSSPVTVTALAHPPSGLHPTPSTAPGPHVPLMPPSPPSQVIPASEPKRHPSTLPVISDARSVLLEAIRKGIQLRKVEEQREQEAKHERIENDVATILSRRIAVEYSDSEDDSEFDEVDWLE
The assay can be described thus: yeast two-hybrid assay.

B1: pancortin 1 (other)
chain: MITNWMSQTLPSLVGLNTTKLSAAGGGTLDRSTGVLPTNPEESWQVYSSAQDSEGRCICTVVAPQQTMCSRDARTKQLRQLLEKVQNMSQSIEVLDRRTQRDLQYVEKMENQMKGLESKFKQVEESHKQHLARQFKAIKAKMDELRPLIPVLEEYKADAKLVLQFKEEVQNLTSVLNELQEEIGAYDYDELQSRVSNLEERLRACMQKLACGKLTGISDPVTVKTSGSRFGSWMTDPLAPEGDNRVWYMDGYHNNRFVREYKSMVDFMNTDNFTSHRLPHPWSGTGQVVYNGSIYFNKFQSHIIIRFDLKTETILKTRSLDYAGYNNMYHYAWGGHSDIDLMVDESGLWAVYATNQNAGNIVVSRLDPVSLQTLQTWNTSYPKRSAGEAFIICGTLYVTNGYSGGTKVHYAYQTNASTYEYIDIPFQNKYSHISMLDYNPKDRALYAWNNGHQILYNVTLFHVIRSDEL
notes: Tested in a yeast two-hybrid assay; also called BMZ
Consider B1, for which the binding result is listed as “no binding”.
